In patent US20160083461A1 (PHILOGEN S P A, published 2016):

Target: T1, antigen (11A12) containing the ED-A domain of human fibronectin (human, UniProt P02751 1629-1905)
T1 construct: Immobilised on a CM5 chip by amine coupling
Test: SPR (BIAcore), monomeric scFv over 11A12 immobilised on CM5 chip
Procedure: The kₒₙ, koff and KD of the parent anti-ED-A antibody and anti-ED-A antibodies B2, C5, D5, C8, F8, B7 and G9 were evaluated using Surface Plasmon Resonance. The chip was equilibrated over night with the same buffer used during the assay at a buffer flow rate of 5 μl/min. The whole coating procedure was performed at this flow rate. The antigen 11A12 was diluted 1:25 with acetate buffer pH 4.00 (provided by BIACORE) to a final concentration of 20 μg/ml. The NHS and EDC were then mixed and 50 μl injected to activate the COOH groups on the CM5 chip. This was followed by injection of 40 μl of the antigen (this lasts about 40″). Then 30 μl of Ethanolammine were injected in order to block the reactivity of eventual free COOH.
Each sample was assayed at a flow rate 20 μl/min. 20 μl of undiluted monomeric protein (as it comes out from the gel filtration) was injected. The dissociation time was left to run for about 200″. Then 10 μl of HCl 10 mM was injected to regenerate the chip. The injection of monomeric protein was repeated at different dilutions, i.e. 1:2 dilution (in PBS) followed by regeneration with HCl. This was followed by a third injection of the protein, at a dilution of 1:4 followed again by regeneration with HCl. The kₒₙ, koff and KD values for each anti-ED-A antibody were evaluated using the BIAevaluation software.

T1 sequence (P02751 other isoform, or with tags, fused parts or gaps limits assumed): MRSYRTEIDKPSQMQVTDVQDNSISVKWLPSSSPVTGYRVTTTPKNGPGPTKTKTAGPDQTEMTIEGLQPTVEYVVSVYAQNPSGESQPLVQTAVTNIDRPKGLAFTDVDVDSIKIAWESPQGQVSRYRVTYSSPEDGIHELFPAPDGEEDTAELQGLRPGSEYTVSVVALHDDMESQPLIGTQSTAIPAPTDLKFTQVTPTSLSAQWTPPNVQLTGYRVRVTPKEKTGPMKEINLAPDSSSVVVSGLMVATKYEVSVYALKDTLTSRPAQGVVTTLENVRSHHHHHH

| Kd [nM] | koff [s⁻¹] | kon [M⁻¹ s⁻¹] | Binder |
| --- | --- | --- | --- |
| ~17 | 0.0076 | 453000 | anti-ED-A antibody D5 (scFv, scFv; Supernatant in BIAcore analysis 1, purified monomeric fraction in BIAcore analysis 2) scFv: EVQLVESGGGLVQPGGSLRLSCAASGFTFSVMKMSWVRQAPGKGLEWVSAISGSGGSTYYADSVKGRFTISRDNSKNTLYLQMNSLRAEDTAVYYCAKSTHLYLFDYWGQGTLVTVSSGGGGSGGGGSGGGGSGGGGSEIVLTQSPGTLSLSPGEKATLSCRASQSVSNAFLAWYQQKPGQAPRLLIYGASSRATGIPDRFSGSGSGTDFTLTISRLEPEDFAVYYCQQMRGRPPTFGQGTKVEIKAAAEQKLISEEDLNGAA |
| ~30 | 0.00923 | 304000 | anti-ED-A antibody C5 (scFv, scFv; Supernatant in BIAcore analysis 1, purified monomeric fraction in BIAcore analysis 2) scFv: EVQLVESGGGLVQPGGSLRLSCAASGFTFSPITMSWVRQAPGKGLEWVSAISGSGGSTYYADSVKGRFTISRDNSKNTLYLQMNSLRAEDTAVYYCAKSTHLYLFDYWGQGTLVTVSSGGGGSGGGGSGGGGSGGGGSEIVLTQSPGTLSLSPGEKATLSCRASQSVSLHFLAWYQQKPGQAPRLLIYGASSRATGIPDRFSGSGSGTDFTLTISRLEPEDFAVYYCQQMRGRPPTFGQGTKVEIKAAAEQKLISEEDLNGAA |
| ~20.9 | 0.00754 | 360000 | anti-ED-A antibody G9 (scFv, scFv; Supernatant in BIAcore analysis 1, purified monomeric fraction in BIAcore analysis 2) scFv: EVQLVESGGGLVQPGGSLRLSCAASGFTFSHMQMSWVRQAPGKGLEWVSAISGSGGSTYYADSVKGRFTISRDNSKNTLYLQMNSLRAEDTAVYYCAKSTHLYLFDYWGQGTLVTVSSGGGGSGGGGSGGGGSGGGGSEIVLTQSPGTLSLSPGEKATLSCRASQSVSTAFLAWYQQKPGQAPRLLIYGASSRATGIPDRFSGSGSGTDFTLTISRLEPEDFAVYYCQQMRGRPPTFGQGTKVEIKAAAEQKLISEEDLNGAA |
| ~14 | 0.0053 | 380000 | anti-ED-A antibody C8 (scFv, scFv; Supernatant in BIAcore analysis 1, purified monomeric fraction in BIAcore analysis 2) scFv: EVQLVESGGGLVQPGGSLRLSCAASGFTFSLQTMSWVRQAPGKGLEWVSAISGSGGSTYYADSVKGRFTISRDNSKNTLYLQMNSLRAEDTAVYYCAKSTHLYLFDYWGQGTLVTVSSGGGGSGGGGSGGGGSGGGGSEIVLTQSPGTLSLSPGEKATLSCRASQSVSLPFLAWYQQKPGQAPRLLIYGASSRATGIPDRFSGSGSGTDFTLTISRLEPEDFAVYYCQQMRGRPPTFGQGTKVEIKAAAEQKLISEEDLNGAA |

More lines, now with the values behind:

| Binder | Kd [nM] | koff [s⁻¹] | kon [M⁻¹ s⁻¹] |
| --- | --- | --- | --- |
| anti-ED-A antibody B7 (scFv, scFv; Supernatant in BIAcore analysis 1, purified monomeric fraction in BIAcore analysis 2) scFv: EVQLVESGGGLVQPGGSLRLSCAASGFTFSHFDMSWVRQAPGKGLEWVSAISGSGGSTYYADSVKGRFTISRDNSKNTLYLQMNSLRAEDTAVYYCAKSTHLYLFDYWGQGTLVTVSSGGGGSGGGGSGGGGSGGGGSEIVLTQSPGTLSLSPGEKATLSCRASQSVSLAFLAWYQQKPGQAPRLLIYGASSRATGIPDRFSGSGSGTDFTLTISRLEPEDFAVYYCQQMRGRPPTFGQGTKVEIKAAAEQKLISEEDLNGAA | ~16.8 | 0.0045 | 267000 |
| anti-ED-A antibody F8 (scFv, scFv format, not the F8 diabody; Supernatant in BIAcore analysis 1, purified monomeric fraction in BIAcore analysis 2; also called anti-ED-A scFv F8) scFv: EVQLVESGGGLVQPGGSLRLSCAASGFTFSLFTMSWVRQAPGKGLEWVSAISGSGGSTYYADSVKGRFTISRDNSKNTLYLQMNSLRAEDTAVYYCAKSTHLYLFDYWGQGTLVTVSSGGGGSGGGGSGGGGSGGGGSEIVLTQSPGTLSLSPGEKATLSCRASQSVSMPFLAWYQQKPGQAPRLLIYGASSRATGIPDRFSGSGSGTDFTLTISRLEPEDFAVYYCQQMRGRPPTFGQGTKVEIKAAAEQKLISEEDLNGAA | ~3.1 | 0.0014 | 465000 |
| anti-ED-A antibody B2 (scFv, scFv; Supernatant in BIAcore analysis 1, purified monomeric fraction in BIAcore analysis 2) scFv: EVQLVESGGGLVQPGGSLRLSCAASGFTFSAAKMSWVRQAPGKGLEWVSAISGSGGSTYYADSVKGRFTISRDNSKNTLYLQMNSLRAEDTAVYYCAKSTHLYLFDYWGQGTLVTVSSGGGGSGGGGSGGGGSGGGGSEIVLTQSPGTLSLSPGEKATLSCRASQSVSVAFLAWYQQKPGQAPRLLIYGASSRATGIPDRFSGSGSGTDFTLTISRLEPEDFAVYYCQQMRGRPPTFGQGTKVEIKAAAEQKLISEEDLNGAA | ~20 | 0.00754 | 380000 |

Target: T1, antigen (11A12) containing the ED-A …
Test: SPR (BIAcore analysis 1), bacterial supernatant of scFv over immobilised 11A12; flatter dissociation curve than the parent
Procedure: The BIAcore Chip was flushed overnight at a flow rate of 5 μl/min with HBS-EP buffer BIACORE, 0.01 M Hepes pH 7.4, 0.15 M NaCl, 3 mM EDTA, 0.005% surfactant P20 (same buffer used for the assay). The antigen (11A12) was diluted to a concentration of 50 μg/ml in acetate buffer (pH 4.0) and the COOH groups on the chip were activated by injection of 50 μl of a mix of N-Hydroxy Succinimmide (NHS) and ethyl-N-(dimethylaminopropyl)-carbodiimide (EDC). 40 μl of the 11A12 antigen were injected onto the chip and the residual free COOH groups were blocked with 30 μl of ethanolamine. After a 0.22 μm filtration, 20 μl of each individual bacterial supernatant were injected onto the chip and interaction with the antigen was monitored in real time.
The association curves of antibodies H1, C5, D5, E5, C8, F8 and F1 were flatter than that observed for the parent anti-ED-A antibody while the association curve observed for antibodies B2, B7, E8 and G9 was as steep as the association curve observed for the parent anti-ED-A antibody. However, as bacterial supernatants of IFTG-induced E. coli TG-1 cells were used for the BIAcore analysis of antibodies H1, B2, C5, D5, E5, C8, F8, F1, B7, E8 and G9, the concentration of the tested antibody samples was unknown but most probably lower than the concentration of the parent anti-ED-A antibody sample used for comparison. Consequently, the association curve of antibodies H1, B2, C5, D5, E5, C8, F8, F1, B7, E8 and G9 may be artificially low due to the low concentration of antibody in the samples used for the BIAcore analysis.

| binding result | Binder |
| --- | --- |
| binds | anti-ED-A antibody E5 (scFv, scFv, tested as bacterial supernatant in BIAcore analysis 1) scFv: EVQLVESGGGLVQPGGSLRLSCAASGFTFSTGSMSWVRQAPGKGLEWVSAISGSGGSTYYADSVKGRFTISRDNSKNTLYLQMNSLRAEDTAVYYCAKSTHLYLFDYWGQGTLVTVSSGGGGSGGGGSGGGGSGGGGSEIVLTQSPGTLSLSPGEKATLSCRASQSVSLAHLAWYQQKPGQAPRLLIYGASSRATGIPDRFSGSGSGTDFTLTISRLEPEDFAVYYCQQMRGRPPTFGQGTKVEIKAAAEQKLISEEDLNGAA |
| binds | anti-ED-A antibody F1 (scFv, scFv, tested as bacterial supernatant (E. coli TG-1) in BIAcore analysis 1) scFv: EVQLVESGGGLVQPGGSLRLSCAASGFTFSQARMSWVRQAPGKGLEWVSAISGSGGSTYYADSVKGRFTISRDNSKNTLYLQMNSLRAEDTAVYYCAKSTHLYLFDYWGQGTLVTVSSGGGGSGGGGSGGGGSGGGGSEIVLTQSPGTLSLSPGEKATLSCRASQSVSAPFLAWYQQKPGQAPRLLIYGASSRATGIPDRFSGSGSGTDFTLTISRLEPEDFAVYYCQQMRGRPPTFGQGTKVEIKAAAEQKLISEEDLNGAA |
| binds | anti-ED-A antibody H1 (scFv, scFv, tested as bacterial supernatant in BIAcore analysis 1; Tags from the pHEN1 vector are not described) scFv: EVQLVESGGGLVQPGGSLRLSCAASGFTFSPRRMSWVRQAPGKGLEWVSAISGSGGSTYYADSVKGRFTISRDNSKNTLYLQMNSLRAEDTAVYYCAKSTHLYLFDYWGQGTLVTVSSGGGGSGGGGSGGGGSGGGGSEIVLTQSPGTLSLSPGEKATLSCRASQSVSSAWLAWYQQKPGQAPRLLIYGASSRATGIPDRFSGSGSGTDFTLTISRLEPEDFAVYYCQQMRGRPPTFGQGTKVEIKAAAEQKLISEEDLNGAA |
| binds | anti-ED-A antibody E8 (scFv, scFv, tested as bacterial supernatant in BIAcore analysis 1) scFv: EVQLVESGGGLVQPGGSLRLSCAASGFTFSDMHMSWVRQAPGKGLEWVSAISGSGGSTYYADSVKGRFTISRDNSKNTLYLQMNSLRAEDTAVYYCAKSTHLYLFDYWGQGTLVTVSSGGGGSGGGGSGGGGSGGGGSEIVLTQSPGTLSLSPGEKATLSCRASQSVSSSFLAWYQQKPGQAPRLLIYGASSRATGIPDRFSGSGSGTDFTLTISRLEPEDFAVYYCQQMRGRPPTFGQGTKVEIKAAAEQKLISEEDLNGAA |
